From patent publication US20210347908A1 (ELPISCIENCE SUZHOU BIOPHARMA, published 2021) come the findings set out here.

Assay [1] addresses T1, Fc tagged human SIRPα v1 ECD recombinant protein (human, UniProt P78324 31-370).
T1 construct: range 1-370; cloned range M1-R370 includes the signal peptide; also called hSIRPα V1; not shown: human IgG Fc region (hFc) of the pCPC vector
The assay is described as follows: ELISA. As to the method: (§1) Binding specificity of the purified hybridoma antibodies against SIRP family members was detected by ELISA assay using recombinant proteins of Fc tagged human SIRPα v1 ECD, human SIRPα v2 ECD, human SIRPβ ECD and human SIRPγ ECD. Briefly the antibodies were incubated with ELISA microplate coated antigens at 37° C. for 1 hour. After washing, horseradish peroxidase (HRP) labeled anti-mouse or anti-human IgG 2nd Ab (Sigma) was added and incubated at 37° C. for 1 hour. Then, 100 μl/well of TMB solution (Biotechnology) was added. After incubation for 15 minutes at room temperature, the reaction was stopped by the addition of 50 μl of 1N HCl. OD 450 nm was read and EC₅₀ was calculated. Other than 060 and HEFLB, all of the antibodies as tested can bind with both human SIRPα v1 and SIRPα v2. 060 and HEFLB can bind with human SIRPα v1 but not v2. Other than 055, all of the antibodies as tested can bind with human SIRPβ. In comparison with other known anti-SIRPα antibodies, only 022, 035 and 050 can bind with human SIRPγ weakly.
(§2) The purified chimeric antibodies were applied for binding specificity analysis and species cross reactivity analysis (refer to methods described in Example 3.3 and 3.4). FIGS. 1A to 1D show binding specificity of anti-SIRPα chimeric antibodies against recombinant proteins of human SIRPα v1 ECD (A), human SIRPα v2 ECD (B), human SIRPβ ECD (C) and human SIRPγ ECD (D) as measured by ELISA analysis.

Assay [2] concerns the target T1, Fc tagged human SIRPα v1 ECD …. Nature of the assay: ELISA. As to the method: as §1, §2
The source holds these as a separate data set.

Assay [3] addresses T2, full length human SIRPα v1 stably expressed on CHOK1 cells (human, UniProt P78324 31-504).
T2 construct: whole, on cells; also called CHOK1-human SIRPα v1-1B4 cells; CHOK1-human SIRPα v1
Nature of the assay: FACS on CHOK1 cells. The method, then: Species cross reactivity of the purified hybridoma antibodies against human, cyno and mouse SIRPα was determined by FACS assay using CHOK1-human SIRPα v1-1B4 cells, CHOK1-cyno SIRPα-2A2 cells, and CHOK1-C57BL/6 mouse SIRPα-2.22 cells, which stably expressing SIRPα protein. Briefly the antibodies were incubated with 2×10⁵ target cells at 4° C. for 1 hour. After washing, fluorescence labeled anti-mouse or anti-human IgG 2nd antibody (Life Technologies) was added and incubated at 4° C. for 1 hour. Geometric median fluorescence intensity was detected and EC₅₀ was calculated. In particular, it is noted, in contrast to the other antibodies tested in the same experiment, 060 cannot bind with cyno SIRPα and 035 has cross reactivity against C57BL/6 mouse SIRPα. […]

The target in assay [4] is T2, full length human SIRPα v1 stably …. The assay is described as follows: FACS on CHOK1 cells. The method, then:
(§3) Species cross reactivity of the purified hybridoma antibodies against human, cyno and mouse SIRPα was determined by FACS assay using CHOK1-human SIRPα v1-1B4 cells, CHOK1-cyno SIRPα-2A2 cells, and CHOK1-C57BL/6 mouse SIRPα-2.22 cells, which stably expressing SIRPα protein. Briefly the antibodies were incubated with 2×10⁵ target cells at 4° C. for 1 hour. After washing, fluorescence labeled anti-mouse or anti-human IgG 2nd antibody (Life Technologies) was added and incubated at 4° C. for 1 hour. Geometric median fluorescence intensity was detected and EC₅₀ was calculated. In particular, it is noted, in contrast to the other antibodies tested in the same experiment, 060 cannot bind with cyno SIRPα and 035 has cross reactivity against C57BL/6 mouse SIRPα.
as §2
This is another data set of the same source.

The target of assay [5] is T3, full length C57BL/6 mouse SIRPα stably expressed on CHOK1 cells (mouse (C57BL/6), UniProt P97797 32-513).
T3 construct: whole, on cells; also called CHOK1-C57BL/6 mouse SIRPα-2.22 cells
T3 sequence (looked up): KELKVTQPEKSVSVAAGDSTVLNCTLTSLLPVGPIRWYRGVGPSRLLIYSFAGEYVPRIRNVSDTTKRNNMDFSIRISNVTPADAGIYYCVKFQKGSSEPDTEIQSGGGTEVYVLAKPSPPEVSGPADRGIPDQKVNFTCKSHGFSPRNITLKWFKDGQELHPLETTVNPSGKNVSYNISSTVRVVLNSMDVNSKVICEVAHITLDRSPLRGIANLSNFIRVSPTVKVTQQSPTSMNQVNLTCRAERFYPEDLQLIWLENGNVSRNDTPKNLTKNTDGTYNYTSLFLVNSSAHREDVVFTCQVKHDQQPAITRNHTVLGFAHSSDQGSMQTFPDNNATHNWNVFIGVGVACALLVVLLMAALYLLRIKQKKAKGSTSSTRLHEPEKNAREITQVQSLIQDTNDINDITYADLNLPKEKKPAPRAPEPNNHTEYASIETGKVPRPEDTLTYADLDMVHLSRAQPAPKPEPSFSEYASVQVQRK
Nature of the assay: FACS on CHOK1 cells. The method, then:
as §3, §2

The target in assay [6] is T2, full length human SIRPα v1 stably …. Nature of the assay: FACS on CHOK1 cells. This is another data set of the same source.
Assay [7] deals with T4, biotin labeled soluble human SIRPα v1 ECD recombinant protein (human, UniProt P78324 31-373, biotin labeled).
T4 construct: extracellular domain
The assay is described as follows: competitive ELISA; competitor 050. As to the method:
(§4) Competitive ELISA assay was used for epitope binning of 9 functional antibodies. Briefly excessive competitor antibody and biotin labeled soluble human SIRPα v1 ECD recombinant protein were co-incubated with ELISA microplate coated antibody. After washing, HRP-SA was added and incubated at 37° C. for 1 hour. Then, […] of TMB solution (Biotechnology) was added. After incubation for 15 minutes at room temperature, the reaction was stopped by the addition of […] of 1N HCl. OD 450 nm was read. Competition ratio was calculated. The antibodies that can compete each other for binding to SIRPα have the similar binding epitope.

The target in assay [8] is T4, biotin labeled soluble human SIRPα v1 …. The assay is described as follows: competitive ELISA; competitor 055. As to the method:
as §4

Assay [9] shares this target. Nature of the assay: competitive ELISA; competitor HEFLB. The method, then:
as §4

For assay [10] the target is unchanged. The assay is described as follows: competitive ELISA; competitor 29-AM4-5. As to the method: as §4

Changes are numbered by the printed parent chain. Like-named read-outs stand apart in the source and are kept apart here.

B1: chimeric antibody 055c (antibody, V domains shown)
VH: EVKLVESEGGLVQPGDSMKLSCTASGFTFSDYFMTWIRQVPEKGLEWIANVNYDGRSTYYLDSLKSRFIISRDNANNILYLQMSSLKSEDTATYYCAREGSQTPLYAVDYWGQGTSVTVSS
VL: DIVMTQSQKFMSTTVGDRVNITCKASQNVGTAVAWYQQKPGQSPKLLIYLASNRYTGVPDRFTGSGSGTDFTLTVSDMRSEDLADYFCQQYSIYPFTFGSGTKLEIK
B1: the concentration giving a half-maximal response (EC50) was 0.11 nM in assay [1], 0.11 nM in assay [2], 3.4 nM in assay [3] and 3.4 nM in assay [4]. In addition, the binding result in assay [5] is recorded as “no binding (tested: 10 nM)”.

B2: chimeric antibody 032c (antibody, V domains shown)
VH: EVRLEESGGGLVQPGGSMKLSCVVSGFTFRNYWMNWVRQSPERGLEWIAEITLKSNTYATHYAESVKGRFAISRDDSKSSFYLQMNDLRPEDTGIYYCTTFTKVVADWHLDVWGAGTTVTVSS
VL: DVLMTQTPLSLPVNLGDQASISCRSSQNIVHSNGNTYLEWYLQKPGQSPKLLIYKVSNRFSGVPDRFSGSGSGTDFTLRISRVEAEDLGVYYCFQGSHVPFTFGSGTKLEIK
In the case of B2, the EC50 in assay [1] came to 0.12 nM; in [2], 0.12 nM; in assay [3] it was 3 nM; in assay [4], 3 nM. The binding result in assay [5] is reported as “no binding (tested: 10 nM)”.

B3: chimeric antibody 022c (antibody, V domains shown)
VH: QIQLVQSGPELKKPGETVKISCKASGYTFTDYAMHWVKQAPGKGLKWMGWKNTETGESTYAEDFKGRFAFFLETSASTAYLQINNVKNEDTATYFCARGGYGSNYVMDYWGQGTSVIVSS
VL: DIQMTQSSSSFSVSLGDRVTITCKASEDIYNRLAWYQQKPGNAPRLLISGATSLETGVPSRFSGSGSGKDYTLSITSLQTEDVATYYCQQYWNSPRTFGGGTKLEIK
Take B3: the EC50 came out at 0.11 nM in [1], 0.11 nM in assay [2], 1.7 nM in assay [3] and 1.7 nM in [4]. Moreover, in assay [5], the binding result is reported as “no binding (tested: 10 nM)”.

B4: chimeric antibody 074c (antibody, V domains shown)
VH: QVQLQQPRAELVKPGASVMLSCKASGYTFSSYWIHWVRQGPGQGLEWIGLIHPNSGNTDCSETFKNKATLTVDTSSSTAYMQLSSLASEDSAVYYCARDGASYDWFVHWGQGTLVTVSA
VL: not shown
In the case of B4, the 50% effective concentration (EC50) was determined as 0.14 nM in [1], 0.14 nM in [2], 5.5 nM in assay [3] and 5.5 nM in assay [4]. Besides, the binding result in [5] was “no binding (tested: 10 nM)”.

B5: chimeric antibody 035c (antibody, V domains shown)
VH: QIQLVQSGPELRKPGETVKISCKASGYSFTNYAMNWVKQAPGKVLKWMGFINTYTGEPTYADDFKGRFAFSLETSASTAYLQINNLKNEDTATYFCTRTRGYYDFDGGAFDYWGQGTSLTVSS
VL: DIVMTQSQKFMSTSIGDRVSVTCKASQNVGTHLAWYQQKPGQSPKALIFSASYRYIGVPDRFTGSGSGTDFTLTITNVQSEDLAEYFCQQYNTYPLTFGAGTKLELK
Take B5: the EC50 is 0.08 nM in assay [1]; 0.08 nM in [2]; 1.5 nM in assay [6]; 1.3 nM in [3]; 1.3 nM in assay [4]. Besides, the “MFI at 10 nM” value in assay [5] is 13400 MFI.

B6: chimeric antibody 060c (antibody, V domains shown)
VH: QVQLKESGPGLVAPSESLSITCTVSGFSLTNYDISWIRQSPGKGLEWLGVIWTGGDTNFNSAFMSRLSISKDKSKSQVFLKLNSLQTDDTAIYYCVRVQYFGGSYGPMDYWGQGISVTVSS
VL: DIQMTQASSYLSVSLGGRVTITCEASDHINDWLAWYQQTPGNAPRLLISGATSLETGVPSRFSGSGSGKDYTLSITSLQTEDIATYYCQQYWNTPLTFGAGTRLELK
As to B6, the EC50 in assay [1] amounted to 0.08 nM; in [2], 0.08 nM; in assay [3], 2.8 nM; in assay [4], 2.8 nM. For the same molecule, the binding result in assay [5] was “no binding (tested: 10 nM)”.

B7: chimeric antibody 050c (antibody, V domains shown)
VH: QIQLVQSGPELKKPGETVKISCKASGYTFTHYSMHWVKQAPGKGLKWMGWINTETAEPTYVDDFKGRFAFSLEASASTAFFQINNLKNEDTATYFCARGGLRQGDYWGQGTTLTVSS
VL: QIVLTQSPPIMSASPGEKVTLTCSATSSVSASYLYWFQQKPGSSPKLWIYSTSNLASGVPARFSGSGSGTSYSLTISNMEPADAASYFCHQWSSYPYTFGGGTKLEIK
With B7, the EC50 in assay [1] stood at 0.11 nM; in assay [2] it was 0.11 nM; in assay [3], 2.4 nM; in assay [4], 2.4 nM. Further, in [5], the binding result is listed as “no binding (tested: 10 nM)”.

B8: reference antibody KWAR23 (antibody, V domains shown)
VH: EVQLQQSGAELVKPGASVKLSCTASGFNIKDYYIHWVQQRTEQGLEWIGRIDPEDGETKYAPKFQDKATITADTSSNTAYLHLSSLTSEDTAVYYCARWGAYWGQGTLVTVSS
VL: B7 VL with P9A, T26S, A31S, F37Y, N78S, P81A, A82E, Y97R, G101A, I107L
With B8, the 50% effective concentration (EC50) in assay [1] stood at 0.1 nM; in [2], 0.1 nM; in assay [6] it was 2.8 nM; in assay [3], 2.8 nM; in assay [4], 2.8 nM. For the same molecule, the binding result in assay [5] is “no binding (tested: 10 nM)”. Further, the “% Competition” value in [7] was 5%; in [8], 1%; in [9], 27%; in assay [10], 54%.
